The subject of series [1] is healthy human participants. Description: Single dose pharmacodynamics of EXT608 in healthy humans (serum calcium, endogenous PTH(1-84), urinary calcium). It is filed as in vivo. Conditions: any dose level tested, about 36 hours post-administration (data not shown). Here is the method: EXT608 vastly improves the serum half-life in humans in a dose-dependent manner. Sterile EXT608 formulations were prepared at a concentration of 0.4 mg/ml in 10 mM sodium acetate buffer pH=5.5, 4.5% mannitol, and 0.25% Polysorbate 80 and filled into sterile vials. Healthy human participants were administered EXT608 by subcutaneous injection in the abdomen at doses of 0, 36, 108, 216, or 324 micrograms (n=3). Pharmacodynamics: Blood samples were collected at −24, −1, 0.5, 1, 2, 4, 8, 12, 18, 24, 36, 48, and 72 hours relative to dosing as well as on Days 5, 7, 14, 21, and 28 after dosing. They were processed to serum and submitted to Quest Diagnostics for standard blood chemistry analysis including total calcium and albumin. EXT608 raised serum calcium levels in a dose-dependent fashion and was able to maintain elevated calcium levels for 24 h. Blood samples (1.5 ml) were collected at −1, 4, 24, 48, and 72 hours relative to dosing as well as on Days 5, 7, 14, 21, and 28 after dosing. They were processed to EDTA plasma and submitted to Quest Diagnostics for intact PTH(1-84) analysis (Test Code #35202). In healthy humans, under conditions of elevated serum calcium, the body will attempt to restore normal calcium levels by a variety of mechanisms including suppression of endogenous PTH(1-84). […]

A short description of series [2]: Repeat dose pharmacokinetics of EXT608 in male and female cynomolgus monkeys. In kind it is in vivo. Conditions: cynomolgus monkey; for Cmin: 0-48 h; for AUC(0-t): sc. Here is the method: 21-Day Experiment: EXT608 was formulated in 20 mM sodium acetate pH=5.5 buffer with 0.8% sodium chloride. In a repeat dose toxicokinetic study, groups of 4 cynomolgus monkeys (2 males+2 females weighing approximately 2.5 kg each) were subcutaneously dosed every other day at a volume of 0.05 ml/kg with either 1.4, 7 or 20 μg/kg of EXT608. On the last day of dosing, Day 21, blood samples (˜1.0 ml) were collected at t=0 (pre-dose), 0.5, 1, 3, 6, 12, 24, 48, and 72 h. Each blood sample was collected from the saphenous vein into tubes containing K2EDTA and centrifuged (˜2700 g, ˜10 min, ˜5° C.) within 1 hour of collection. Plasma was recovered and divided evenly into duplicate aliquots and frozen. 90-Day Experiment: EXT608 was formulated in 10 mM sodium acetate pH=5.5 buffer with 0.8% sodium chloride and 0.1% Polysorbate 80. In a repeat dose toxicokinetic study, groups of 6 cynomolgus monkeys (3 males+3 females) were subcutaneously dosed every other day at a volume of 0.05 ml/kg with either 0.7 or 2 μg/kg of EXT608. On the last day of dosing, Day 89, blood samples (˜1.0 ml) were collected at t=0 (pre-dose), 0.5, 1, 3, 6, 12, 24, 48, and 72 h. Plasma was prepared as described above for the 21-Day experiment. […] Group-averaged EXT608 levels as a function of time are shown in FIG. 14 for the last dose administration after either 21 days of every other day dosing (20, 7, and 1.4 μg/kg) or 89 days of every other day dosing (2 and 0.7 μg/kg). Surprising, the PK profiles changed as a function of dose level. […] Pharmacokinetic parameters were determined from the plasma concentration versus time data (Table 7) by a non-compartmental extravascular administration model with uniform weighting using Phoenix® WinNonlin® Version 6.4 (Certara L.P. (Pharsight), Princeton, NJ). Pharmacokinetic analysis was performed on data for individual animals collected from t=0 to 72 h following the last administered dose. […] It is noted that the t1/2 values were calculated from less than three half-lives of data. […] The Cmax/Cmin ratio represents the peak-to-trough ratio of EXT608 concentration that is observed during a dosing period. […] Without being bound by theory, the low peak-to-trough ratios observed at low doses could be the result of a slower rate of absorption of EXT608 from the subcutaneous space into circulation. A low peak-to-trough ratio is desirable in many therapeutic applications including parathyroid hormone replacement therapy. This is because it allows dosing at levels close to the ideal efficacious dose without going too high where toxicity is observed, or too low where the efficacy is reduced.

Where [3] appears, read: in vivo, 1.4 ug/kg, every-other-day SC 1.4 μg/kg, 21 days.

Consider one molecule from patent publication US12233115B2, “Long-acting parathyroid hormone” (Extend Biosciences, Inc., priority 2022, dated 2025).

Read-outs that look alike come from different tables or passages of the source.

In general, Cmax refers to the peak of the concentration-time curve. In general, Tmax refers to the time from dosing to the highest level. Consider `C=C1CC[C@H](OCCCNC(=O)CCOCCOCCOCCOCCOCCOCCOCCOCCOCCOCCOCCOCCOCCOCCOCCOCCOCCOCCOCCOCCOCCOCCOCCOCCOCCOCCOCCOCCOCCOCCOCCOCCOCCOCCOCCOCCNC(=O)CCN2C(=O)CC(SC[C@H](NC(=O)[C@H](Cc3ccccc3)NC(=O)[C@H](CC(N)=O)NC(=O)[C@H](Cc3c[nH]cn3)NC(=O)[C@@H](NC(=O)[C@H](CC(=O)O)NC(=O)[C@H](CCC(N)=O)NC(=O)[C@H](CC(C)C)NC(=O)[C@H](CCCCN)NC(=O)[C@H](CCCCN)NC(=O)[C@H](CCCNC(=N)N)NC(=O)[C@H](CC(C)C)NC(=O)[C@H](Cc3c[nH]c4ccccc34)NC(=O)[C@H](CCC(=O)O)NC(=O)[C@@H](NC(=O)[C@H](CCCNC(=N)N)NC(=O)[C@H](CCC(=O)O)NC(=O)[C@H](CCSC)NC(=O)[C@H](CO)NC(=O)[C@H](CC(N)=O)NC(=O)[C@H](CC(C)C)NC(=O)[C@H](Cc3c[nH]cn3)NC(=O)[C@H](CCCCN)NC(=O)CNC(=O)[C@H](CC(C)C)NC(=O)[C@H](CC(N)=O)NC(=O)[C@H](Cc3c[nH]cn3)NC(=O)[C@H](CCSC)NC(=O)[C@H](CC(C)C)NC(=O)[C@H](CCC(N)=O)NC(=O)[C@@H](NC(=O)[C@H](CCC(=O)O)NC(=O)[C@H](CO)NC(=O)[C@@H](NC(=O)[C@@H](N)CO)C(C)C)[C@@H](C)CC)C(C)C)C(C)C)C(N)=O)C2=O)C/C1=C/C=C1\CCC[C@]2(C)[C@@H]([C@H](C)CCCC(C)(C)O)CC[C@@H]12` (some centres unmarked) [EXT608], for which the “effect on urinary calcium” value in series [1] is “did not cause a significant increase”. Moreover, the Cmin in series [2] (every-other-day SC 0.7 μg/kg, 89 days) was 0.600 ng/mL; in series [2] (every-other-day SC 1.4 μg/kg, 21 days) it was 0.485 ng/mL; in series [2] (every-other-day SC 2 μg/kg, 89 days), 0.635 ng/mL; in series [2] (every-other-day SC 7 μg/kg, 21 days) it was 0.991 ng/mL; in series [2] (every-other-day SC 20 μg/kg, 21 days) it was 1.97 ng/mL. Moreover, the AUC(0-t) in series [2] (in vivo, 0.7 ug/kg, every-other-day SC 0.7 μg/kg, 89 days, read-out: AUC0-48 h) was found to be 45.4 ng·h/mL; in series [2] (in vivo, 0.7 ug/kg, every-other-day SC 0.7 μg/kg, 89 days, read-out: AUClast), 61.6 ng·h/mL; in series [2] (in vivo, 1.4 ug/kg, every-other-day SC 1.4 μg/kg, 21 days, read-out: AUC0-48 h), 41.5 ng·h/mL; in series [2] (in vivo, 1.4 ug/kg, every-other-day SC 1.4 μg/kg, 21 days, read-out: AUClast) it was 48 ng·h/mL; in series [2] (in vivo, 2 ug/kg, every-other-day SC 2 μg/kg, 89 days, read-out: AUC0-48 h), 63.1 ng·h/mL; in series [2] (in vivo, 7 ug/kg, every-other-day SC 7 μg/kg, 21 days, read-out: AUC0-48 h), 147 ng·h/mL. Besides, the AUC(0-t) in series [2] (in vivo, 20 ug/kg, every-other-day SC 20 μg/kg, 21 days, read-out: AUC0-48 h) was 401 ng·h/mL. Moreover, the Cmax in series [2] (setting [3]) came to 1.63 ng/mL; in series [2] (in vivo, 20 ug/kg, every-other-day SC 20 μg/kg, 21 days) it was 38.1 ng/mL. For the same molecule, in series [2] (setting [3]), the Tmax is 1.8 h. Further, the half-life in series [2] (in vivo, repeated every-other-day SC dosing, across doses, calculated from less than three half-lives of data, read-out: t1/2 of elimination) is 34.7 to 51 h.
